# Source: the RNAGym collection of RNA variant scans (doi:10.1073/pnas.2313332121)
# Variants at the floor of the assay were thinned out.
# B1: TPR 5TU (parent)
# chain: GGAUCUUCUCGAUCUAACAAAAAAGACAAAUCUGCCACAAAGCUUGAGAGCAUCUUCGGAUGCAGAGGCGGCAGCCUUCGGUGGCGCGAUAGCGCCAACGUUCUCAACUAUGACACGCAAAACGCGUGCUCCGUUGAAUGGAGUUUAUCAUG
# Variants of: B1
# Experiment: polymerase ribozyme fitness, log enrichment relative to wild type (log ratio); higher = more active; in vitro selection for triplet polymerase activity
# Procedure, shortened: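 After PCR construction and transcription, each subunit's mutant library from a heterodimeric triplet polymerase ribozyme was annealed with a biotinylated primer, the partner subunit and triplets. Incubation was frozen, at −7 °C, and extended constructs were gel-excised, bound to streptavidin beads and amplified by RT-PCR, in one selection round done in triplicate. Fitness is the logarithm of a genotype's enrichment divided by that of the wild type, from inverse-variance-weighted replicate averages of Illumina-sequenced inputs and outputs. The base of the logarithm is 2, and genotypes needed ≥10 input reads and ≥1 read per output.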
row,Variant,polymerase ribozyme fitness (log ratio)
1,A26U U148A,-4.11
2,C27G G50A,-3.72
3,A28C G86U,≤ -4.2
4,A28C A52U U55G C87G C125U G152A,≤ -4.2
5,A28G U31G C36A U56A C95A G141C,-3.69
6,C27U C57A,-0.747
7,C27A G58A C76G C99U U101G,≤ -4.2
8,C27G C87G G133C,≤ -4.2
9,C27G C38A C54U G92U U134G,≤ -4.2
10,A26U U44A G58A C87U A107G C123G G141C,-3.93
11,A28C A30U G86A,≤ -4.2
12,A28G G46A C85A A91G,≤ -4.2
13,C27G U44G U77G G83C A89U,≤ -4.2
14,A28C C35U G124A G141U,≤ -4.2
15,A28C G34A C38G C72U C76A C96G U151A,≤ -4.2
16,A26U G48C A49U A64C U90G A137G,-4.11
17,A28G C93U C105G,≤ -4.2
18,C27G G83A A89C,-3.98
19,C27U C36U,-2.88
20,C27A C85U C96A C114U A119G G140C,-4.07
21,C27A U33C C85A A106G U144A U151C,≤ -4.2

row,Variant,polymerase ribozyme fitness (log ratio)
1,C27G C51U G80C G86U,≤ -4.2
2,C27U G50C G141A,-4.12
3,C27A A39G U53C C95A A121U G136C,≤ -4.2
4,A28C G58U A113G A119U,≤ -4.2
5,A28G U56A G136C,≤ -4.2
6,C27U C63U C87A G141U,≤ -4.2
7,A28G C75G G88A U139G G141C,-3.97
8,C27G A52G G92A,≤ -4.2
9,C27G C93U U130G U151A,≤ -4.2
10,A28C C51A C76G G83C A110U U127G,≤ -4.2
11,C27U A40C G59C G92C A98G C108U C132A U151G,≤ -4.2
12,A28C G59U A91G U135C,≤ -4.2
13,C27U G34C C93A G117A,≤ -4.2
14,C27G G71A A138C A142C,≤ -4.2
15,C27U A37C G59U U61A C63U A64C G92U,≤ -4.2
16,C27G A147C,-4.05
17,A28C G46C C76G U82A A89C G124A,≤ -4.2
18,C27U G86U C99G,≤ -4.2
19,C27A C35A G84U C103G,≤ -4.2
20,A28C A52U C87U,≤ -4.2
21,C27U A97G C131A U151C,≤ -4.2

row,Variant,polymerase ribozyme fitness (log ratio)
1,C27G C38U A39G A73C G94U U146C G152U,≤ -4.2
2,C27U C63G C95U C96U C99G,-3.33
3,C27A A28C C57G C76A A91C,≤ -4.2
4,C27A G58U C95U C96A G124U,-4.08
5,C27G C38U A49C G65C C87G C114A A119G U145A,-4.07
6,A26U G50A A64G U101G G141A,≤ -4.2
7,C27G A39C G59C C85G C105G,≤ -4.2
8,C27A G86A G94A U102G C132U G133U U134A,≤ -4.2
9,C27A G59A C85U U134A,≤ -4.2
10,C27U C79U C87G U90C C96U A121U U134G,≤ -4.2
11,A28G C43U A113U G117A A138G,≤ -4.2
12,A26U G62U U135A,-2.77
13,C27U G94A,-2.73
14,C27U C43A C75U C96U C105A,≤ -4.2
15,C27A U45G G46A A60U C95G G124U,≤ -4.2
16,A28G G83C,-4.1
17,C27A U33G A39G A60C C93U U127C G140A,-4.14
18,A28C C43U C76G A110G A138U,≤ -4.2
19,C27U C75G C85A C105G U130G U146G,≤ -4.2
20,C27G G94C G136U,≤ -4.2
21,C27A A28G A40C A47C A73C U77C C99G,≤ -4.2

row,Variant,polymerase ribozyme fitness (log ratio)
1,C27U C57A C95U,-2.1
2,C27U A39G A40C C69A U77C G94U C95A C116U G140U,≤ -4.2
3,A28G U44A G83C A147G,≤ -4.2
4,C27U A37C A52C C87U G88C,≤ -4.2
5,C27G C36U G50U A73U U82A C95U,≤ -4.2
6,C27G A37C U44A U45A C57U G68A G83A A119U A120U A147G,≤ -4.2
7,A28C U61G G67A C69A C93G A113U G124U,≤ -4.2
8,A28C C93U,-4.16
9,C27A A47U A106U U145A,≤ -4.2
10,C27U U55A G70C A91U A97U A106G,≤ -4.2
11,A28C C54G C79G C85G U145A,≤ -4.2
12,C27G C72U G83U A91U C93U,≤ -4.2
13,A28G A40G G50A A52G G65U C96U,-3.77
14,C27G C93U G141C,-3.68
15,A28G G34U G80A U102A C108G,≤ -4.2
16,A28C U44A G59A C125A G143C,≤ -4.2
17,C27A C54U A91C G94C,≤ -4.2
18,A26U G81A,-1.66
19,C27A A37U A91C,-4.17
20,C27U G58C C87A A107U,≤ -4.2
21,C27G A40U G58A A73C C76U C95G,≤ -4.2
